Reference: paper PMC9061850, “Structural basis for the inhibition of IAPP fibril formation by the co-chaperonin prefoldin” (Nature Communications, 2022)
Positions of bridges follow the written chain, without caps; N, C: chain ends. No end group written: not given here. *: point of attachment. Biotin = O=C1N[C@H]2[C@H](CS[C@H]2CCCCC(=O)*)N1; βAla = NCCC(=O)O

T1: Prefoldin from Pyrococcus horikoshii (PhPFD, α2β4 heterohexamer, 86.4 kDa) (Pyrococcus horikoshii, UniProt O58263 1-148; O58268 1-117, S98G)
T1 construct: Prefoldin α-subunit, Pyrococcus horikoshii, with the point mutation S98G; Prefoldin β-subunit, Pyrococcus horikoshii; Used unlabelled (NMR titration, BLI, EM, ThT assays) and, for the PRE experiments, highly deuterated with 15N or 13CH3 labels on either the α- or the β-subunit; also called archaeal prefoldin; source: E. coli BL21 (DE3), α- and β-subunit from separate pET23c plasmids, purified …
T1 sequence 1: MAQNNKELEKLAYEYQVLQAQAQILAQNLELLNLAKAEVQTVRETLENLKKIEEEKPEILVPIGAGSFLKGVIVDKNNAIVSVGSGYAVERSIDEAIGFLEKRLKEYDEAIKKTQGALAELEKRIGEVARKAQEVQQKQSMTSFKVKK
T1 sequence 2: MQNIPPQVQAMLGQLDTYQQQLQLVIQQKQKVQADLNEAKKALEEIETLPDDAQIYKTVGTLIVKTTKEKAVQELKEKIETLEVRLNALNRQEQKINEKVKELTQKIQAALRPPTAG

B1: U-[15N]-labeled recombinant human IAPP (non-amidated), monomeric (peptide)
peptide: KCNTATCATQRLANFLVHSSNNFGAILSSTNVGSNTY-OH
modifications: ends and bridges not checked; also: U-[15N] isotope label
notes: Human islet amyloid polypeptide (IAPP, amylin); numbers count on: the mature protein; also called U-[15N]-IAPP; monomeric IAPP; source: preparative RP-HPLC as final step
B2: biotinylated IAPP (biotinyl-[β-Ala]-[β-Ala]-IAPP-NH2), monomeric (peptide)
peptide: {Biotin-βAla-βAla}-KCNTATCATQRLANFLVHSSNNFGAILSSTNVGSNTY-NH2
modifications: disulfide 2-7
SMILES: CC[C@H](C)[C@H](NC(=O)[C@H](C)NC(=O)CNC(=O)[C@H](Cc1ccccc1)NC(=O)[C@H](CC(N)=O)NC(=O)[C@H](CC(N)=O)NC(=O)[C@H](CO)NC(=O)[C@H](CO)NC(=O)[C@H](Cc1c[nH]cn1)NC(=O)[C@@H](NC(=O)[C@H](CC(C)C)NC(=O)[C@H](Cc1ccccc1)NC(=O)[C@H](CC(N)=O)NC(=O)[C@H](C)NC(=O)[C@H](CC(C)C)NC(=O)[C@H](CCCNC(=N)N)NC(=O)[C@H](CCC(N)=O)NC(=O)[C@@H](NC(=O)[C@H](C)NC(=O)[C@@H]1CSSC[C@H](NC(=O)[C@H](CCCCN)NC(=O)CCNC(=O)CCNC(=O)CCCC[C@@H]2SC[C@@H]3NC(=O)N[C@@H]32)C(=O)N[C@@H](CC(N)=O)C(=O)N[C@@H]([C@@H](C)O)C(=O)N[C@@H](C)C(=O)N[C@@H]([C@@H](C)O)C(=O)N1)[C@@H](C)O)C(C)C)C(=O)N[C@@H](CC(C)C)C(=O)N[C@@H](CO)C(=O)N[C@@H](CO)C(=O)N[C@H](C(=O)N[C@@H](CC(N)=O)C(=O)N[C@H](C(=O)NCC(=O)N[C@@H](CO)C(=O)N[C@@H](CC(N)=O)C(=O)N[C@H](C(=O)N[C@@H](Cc1ccc(O)cc1)C(N)=O)[C@@H](C)O)C(C)C)[C@@H](C)O
notes: Human islet amyloid polypeptide (IAPP, amylin), 37 residues; numbers count on: the mature protein; Molecular mass 4271.9 Da, purity 99.2%; also called monomeric biotinylated IAPP; source: synthetic peptide (custom synthesized, Pepscan, Lelystad); not shown: biotin, N-terminal, kept

What was measured:
[1] = target: T1, Prefoldin from Pyrococcus horikoshii …; assay: NMR titration; unlabeled PhPFD added to 29 µM U-[15N]-IAPP, ratios 1:0 to 1:8; 2D 15N-SOFAST-HMQC at 30 °C; 25 mM MES/NaOH (pH 6.5), 25 mM MgCl2; TITAN global lineshape fitting, two-state model assuming 1:1 stoichiometry; apparent; conditions: both partners purified
[2] = target: T1, Prefoldin from Pyrococcus horikoshii …; assay: BLI; biotinylated monomeric IAPP immobilised on Super Streptavidin biosensors, quenched with biotin; PhPFD 0.5 µM to 150 µM in solution; room temperature; 50 mM MES/NaOH (pH 6.5), 25 mM MgCl2; steady state analysis; conditions: both partners purified

Row | Binder | Kd [1] | koff [1] | Kd [2]
1 | B1 | 61 µM | ~6000 s⁻¹ | –
2 | B2 | – | – | 11 ± 1.2 µM
